Sequences and labels used below:
B1: Hairpin Ribozyme (parent)
chain: GUCCUCUUUCACGUGCGCGUGAAAGAGAGAAGUGAACCAGAGAAACACACGUUGUGGUAUAUUACCUGGUA

38 variants from the RNAGym collection of RNA variant scans (doi:10.7554/elife.80360) can be followed below.

In the data set the parent is B1. Put plainly: self-cleavage, relative activity (ratio to wild type); higher = more cleavage; co-transcriptional.
Take GUCCUGUUUCACGUGCGCGUGAAAGAGAGAAGUGAACCAGAGACACACACGUUGUGGUAUAUUACCUGGUA: the self-cleavage stood at 0.17.

Regarding GUCCUCUUACACGUGCGCGUGAAAGAAAGAAGUGAACCAGAGAAACACACGUUGUGGUAUAUUACCUGGUA, the self-cleavage was 0.25.

Turning to GUCCUCUUGCACGUGCGCGUGAAAGAGAGAAGUGAACCAGAGAAACACACGUUGUGGUAUAUUACUUGGUA, the self-cleavage stood at 0.429.

For GUACUGUUUCACGUGCGCGUGAAAGAGAGAAGUGAACCAGAGAAACACACGUUGUGGUAUAUUACCUGGUA, the self-cleavage was 0.455.

Consider GUCCUCUUUCACGUGCGCGUGAACGAGAGAAGUGAACCAGAGAAACCCACGUUGUGGUAUAUUACCUGGUA, for which the self-cleavage came out at 0.272.

Take UUCCUCUUUCACGUGCGCGUGAAAGAGAGAAGUGAACCAGAGAAACACACGAUGUGGUAUAUUACCUGGUA: the self-cleavage is 0.0595.

In the case of GUCCUCUUUCACAUGCGCGUGAAAGAGAGAAGUGAACCAGCGAAACACACGUUGUGGUAUAUUACCUGGUA, the self-cleavage came to 1.04.

For the variant GUCCUCUUUCACGUGCGCGUGAAAGAGAGAAGUUAACCAGAGAAACACACGUUGUGGUAUAUAACCUGGUA, the self-cleavage stood at 0.243.

Turning to GUCCUCUUUCACGUGCGCGUGAUAGGGAGAAGUGAACCAGAGAAACACACGUUGUGGUAUAUUACCUGGUA, the self-cleavage worked out at 0.88.

Turning to GUCCUCUUUCACUUGCGCGUGAAAGAGAGAAGUGUACCAGAGAAACACACGUUGUGGUAUAUUACCUGGUA, the self-cleavage came out at 0.83.

GUCCUCUUUCACGUGCGCGUGAAAGAGAGAAGAGAACCAGAGAAACACACGUGGUGGUAUAUUACCUGGUA: the self-cleavage was 0.0866.

Take GUCCUCUUUCACGUGCGCGUGAAAGAGAGAAGUGAACCAGAGAGACACACGUUGUGGUAUAGUACCUGGUA: the self-cleavage worked out at 0.207.

GUCCUCUUUCACGUGCGCGUGAAAGAGAGAAGUGAAUCAGAGAAACACACGUUGCGGUAUAUUACCUGGUA: the self-cleavage worked out at 0.172.

GUCCUCUUUGACGUGCGCGAGAAAGAGAGAAGUGAACCAGAGAAACACACGUUGUGGUAUAUUACCUGGUA: the self-cleavage was determined as 0.484.

Turning to GUCCUCUUUCUCGUGCGCGAGAAAGAGAGAAGUGAACCAGAGAAACACACGUUGUGGUAUAUUACCUGGUA, the self-cleavage was determined as 0.874.

As for CUCCUCUUUCACGUGCGCGUGAAAGAGAGAAGUGAACCAGAGAAACACACGUUGUGGUACAUUACCUGGUA, the self-cleavage was 0.314.

Take GGCCUCUUUCACGUGCGCGUGAAAGAGAGAAGUGAACCAGAGAAACACACGUUGUGGUAUAUUACCUCGUA: the self-cleavage was found to be 0.135.

With GUCCUCUUUCACGUGCGCGUGAAAGAGAAAAGUGAACCAGAGUAACACACGUUGUGGUAUAUUACCUGGUA, the self-cleavage stood at 0.0816.

Regarding GGCCUCUUUCACGUGCGCGUGAAAGAGAGAAGUGAACCAGAUAAACACACGUUGUGGUAUAUUACCUGGUA, the self-cleavage was 0.0398.

Consider GUCCUCUUUCACGUGCGCGUGAAAAAGAGAAGUGAACCAGAGAAACACACGUUGUGGUAUAUUACCCGGUA, for which the self-cleavage stood at 0.166.

Turning to GUCCUCUUUCACGUGCGCGUGCAAGAGCGAAGUGAACCAGAGAAACACACGUUGUGGUAUAUUACCUGGUA, the self-cleavage was 0.386.

As for GUCCUCUUUCACGUACGCGUGAAAGAGAGAAGUGAACCAGAGAACCACACGUUGUGGUAUAUUACCUGGUA, the self-cleavage came to 0.0834.

As for GUCCUCUUUCACGUGCGCGUGAAAGAGAGAAGUGAACCAGAGAAACACACGUCGUGGUAUAUUAUCUGGUA, the self-cleavage was 0.274.

For the variant GUCCUCUUUCACGUGCGCGUGAAAGAGAGAAGUGAACCAGAGCAACACACGUUGUGGUAUAUCACCUGGUA, the self-cleavage was found to be 0.157.

With GUCCUCUUUCACGUGCGCGAGAAAGAGAGAAGUGAACCAGAGAAACACACGUUGUGGUAUAUUACCUGGUU, the self-cleavage worked out at 0.735.

As for GUCCUCUUUCACGUGCGCGUGAAAGAGAGAAGCGAACCAGCGAAACACACGUUGUGGUAUAUUACCUGGUA, the self-cleavage was 0.114.

For GACCUCUUUCACGUGAGCGUGAAAGAGAGAAGUGAACCAGAGAAACACACGUUGUGGUAUAUUACCUGGUA, the self-cleavage came out at 0.221.

Turning to GUCCCCUUUCACGUGCGCGUGAAAGAGGGAAGUGAACCAGAGAAACACACGUUGUGGUAUAUUACCUGGUA, the self-cleavage was 0.358.

As for GUCCUCUUUCACGUGCGCGUCAAAGAGAGAAGUGAACCAGAGAAACACACGAUGUGGUAUAUUACCUGGUA, the self-cleavage was 0.909.

For the variant GUCCUCUUUCACGACCGCGUGAAAGAGAGAAGUGAACCAGAGAAACACACGUUGUGGUAUAUUACCUGGUA, the self-cleavage was found to be 1.06.

For GUCCUCUUUCACGUGCGCGUGAAAGCGAGAAGUGAACCAGAGAAACACACGUUGGGGUAUAUUACCUGGUA, the self-cleavage was 0.297.

For GUCCUCUUUCUCGUGCGCGUGAAAGAGAGAAGUGAACCAGAGUAACACACGUUGUGGUAUAUUACCUGGUA, the self-cleavage amounted to 0.078.

As for GUCCUCUUUCACGUGCGCGUGAAAGAGAGAAGUGAACCAGAGAAACACACGUUGACGUAUAUUACCUGGUA, the self-cleavage was found to be 0.203.

As to GUCCGCUUUCACGUGCGCGUGAAAGAGAGAAGUGAACCAGAGAAACACACGUUGUGGUAUGUUACCUGGUA, the self-cleavage came to 0.0248.

Consider GUCCUCUUUCACGUGCGCGUGAAAGAGAGACGUGAACCAGAGAACCACACGUUGUGGUAUAUUACCUGGUA, for which the self-cleavage turned out to be 0.0871.

GCCCUCUUUCACGUGCGCGUGAAAGAGUGAAGUGAACCAGAGAAACACACGUUGUGGUAUAUUACCUGGUA: the self-cleavage amounted to 0.0802.

For GUCCUCUUUCACGUGCGCGUGAAAGAGAGAAGUGAACCAGAUAAACACACGUUGUGGUAUAUUAUCUGGUA, the self-cleavage came to 0.12.

Take GUCCUCUUUCACGUGCGCGAGAAAGAGAGAAGUGAACCAGAGAAACUCACGUUGUGGUAUAUUACCUGGUA: the self-cleavage is 0.274.
